Key:
Format in all cases: cell-based
RAJI cells = assay: JNG assay, co-culture with RAJI cells; conditions: co-culture with Raji; for NFAT-GFP ASSAY: Raji: JNG cells expressing construct
Procedure, shortened: (§1)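 Jurkat NFAT-GFP (JNG) cells stably transduced with SARs by lentivirus, with drug selection where the construct carried a resistance gene, then co-cultured with target cells at E:T ~1:2 for ~4–18 h. % GFP-positive cells measured by FACS against parental JNG; +/- to 5+ correspond to ~5–50% GFP-positive.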

RAJI-CD19-KO cells = assay: JNG assay, co-culture with RAJI-CD19-KO cells; conditions: co-culture with Raji-CD19-KO
Procedure, shortened: as §1

RS;411 = assay: JNG assay, co-culture with RS;411 cells; conditions: co-culture with RS411
Procedure, shortened: as §1

L363 cells = assay: JNG assay, co-culture with L363 cells; conditions: co-culture with L363
Procedure, shortened: as §1

Nalm6 cells = assay: JNG assay, co-culture with Nalm6 cells; conditions: co-culture with Nalm6
Procedure, shortened: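 Read-out is % GFP-positive cells by flow cytometry after ~4–18 h co-culture (E:T ≈1:2) of target lines with SAR-transduced, puromycin/blasticidin-selected JNG cells. Grades +/-, +, 2+…5+ correspond to approximately 5%, 10%, 20%, 30%, 40%, 50% GFP+ over parental JNG controls.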

Molecule | NFAT-GFP ASSAY (JNG): GFP induction, Raji (RAJI cells) | NFAT-GFP ASSAY (JNG): GFP induction, Raji-CD19-KO (RAJI-CD19-KO cells) | NFAT-GFP ASSAY (JNG): GFP induction, RS411 (RS;411) | NFAT-GFP ASSAY: Raji (RAJI cells) | NFAT-GFP ASSAY: Raji-CD19-KO (RAJI-CD19-KO cells) | NFAT-GFP ASSAY: RS411 (RS;411) | NFAT-GFP ASSAY: L363 (L363 cells) | NFAT-GFP ASSAY: Nalm6 (Nalm6 cells)
CD8SP-BCMA-FHVH-93-G4S-CD19-MOR0028-scFv-hCD8TM-BBZ-T2A-PAC (protein) ACEVQLLESGGGLIQPGGSLRLSCAASGFTFSSHAMTWVRQAPGKGLEWVSAISGSGDYTHYADSVKGRFTISRDNSKNTVYLQMNSLRAEDSAVYYCAKDEDGGSLLGHRGQGTLVTVSSGTGGGGSGGGGSGGGGSEFINIYNAEPANPSEKNSPEFDIVMTQSPATLSLSPGERATLSCRSSKSLQNVNGNTYLYWFQQKPGQSPQLLIYRMSNLNSGVPDRFSGSGSGTEFTLTISSLEPEDFAVYYCMQHLEYPITFGAGTKLEIKGGGGSGGGGSGGGGSEVQLVESGGGLVKPGGSLKLSCAASGYTFTSYVMHWVRQAPGKGLEWIGYINPYNDGTKYNEKFQGRVTISSDKSISTAYMELSSLRSEDTAMYYCARGTYYYGTRVFDYWGQGTLVTVSSTRTTTPAPRPPTPAPTIASQPLSLRPEACRPAAGGAVHTRGLDFACDIYIWAPLAGTCGVLLLSLVITLYCKRGRKKLLYIFKQPFMRPVQTTQEEDGCSCRFPEEEEGGCELRVKFSRSADAPAYQQGQNQLYNELNLGRREEYDVLDKRRGRDPEMGGKPRRKNPQEGLYNELQKDKMAEAYSEIGMKGERRRGKGHDGLYQGLSTATKDTYDALHMQALPPRSSGSGEGRGSLLTCGDVEENPGPHMTEYKPTVRLATRDDVPRAVRTLAAAFADYPATRHTVDPDRHIERVTELQELFLTRVGLDIGKVWVADDGAAVAVWTTPESVEAGAVFAEIGPRMAELSGSRLAAQQQMEGLLAPHRPKEPAWFLATVGVSPDHQGKGLGSAVVLPGVEAAERAGVPAFLETSAPRNLPFYERLGFTVTADVEVPEGPRTWCMTRKPGA | 4+ (refer to approximately 5%, 10%, 20%, 30%, 40% and 50% GFP positive cells) | 3+ (refer to approximately 5%, 10%, 20%, 30%, 40% and 50% GFP positive cells) | 5+ (refer to approximately 5%, 10%, 20%, 30%, 40% and 50% GFP positive cells) |  |  |  |  | 
22110 (protein) MALPVTALLLPLALLLHAARPQLQLQESGPGLVKPSETLSLTCTVSGDSISSGDYYWGWIRQPPGKGLEWIGHIYYSGVTYYNPSLKSRVTISVDTSRNQFSLKLSSVTAADTAVYYCTREDSSNWRSRGQGTLVTVSSGTGGGGSGGGGSGGGGSEFDIQMTQSPSSLSASVGDRVTITCKASDHINNWLAWYQQKPGQAPKLLIYGATTLETGVPSRFSGSGSGTDYTLTISSLQPEDFATYYCQQSWNTPWTFGQGTKLEIKRLEDLKNVFPPEVAVFEPSEAEISHTQKATLVCLATGFYPDHVELSWWVNGKEVHSGVCTDPQPLKEQPALNDSRYCLSSRLRVSATFWQNPRNHFRCQVQFYGLSENDEWTQDRAKPVTQIVSAEAWGRADCGFTSESYQQGVLSATILYEILLGKATLYAVLVSALVLMAMVKRKDSRGRAKRSGSGATNFSLLKQAGDVEENPGPTSMDWIWRILFLVGAATGAHSFEQVQLQQPGAELVKPGASVKMSCKASGYAFSSYWINWMKQKPGQGLEWIGQIYPGDGDTNYNGKFKGRATLTADTSSSTAYMQLSSLTSEDSAVYFCARSITTVVGCAMDYWGQGTSVTVSSTRIQNPDPAVYQLRDSKSSDKSVCLFTDFDSQTNVSQSKDSDVYITDKCVLDMRSMDFKSNSAVAWSNKSDFACANAFNNSIIPEDTFFPSPESSCDVKLVEKSFETDTNLNFQNLSVIGFRILLLKVAGFNLLMTLRLWSSRAKRSGSGVKQTLNFDLLKLAGDVESNPGPSRGHMTEYKPTVRLATRDDVPRAVRTLAAAFADYPATRHTVDPDRHIERVTELQELFLTRVGLDIGKVWVADDGAAVAVWTTPESVEAGAVFAEIGPRMAELSGSRLAAQQQMEGLLAPHRPKEPAWFLATVGVSPDHQGKGLGSAVVLPGVEAAERAGVPAFLETSAPRNLPFYERLGFTVTADVEVPEGPRTWCMTRKPGA |  |  |  | 5+ (refer to approximately 5%, 10%, 20%, 30%, 40% and 50% GFP positive cells) | 4+ (refer to approximately 5%, 10%, 20%, 30%, 40% and 50% GFP positive cells) | 4+ (refer to approximately 5%, 10%, 20%, 30%, 40% and 50% GFP positive cells) |  | 
22114 (protein) MALPVTALLLPLALLLHAARPDIQMTQSPSSLSASVGDRVTITCKASDHINNWLAWYQQKPGQAPKLLIYGATTLETGVPSRFSGSGSGTDYTLTISSLQPEDFATYYCQQSWNTPWTFGQGTKLEIKRLEIQNPDPAVYQLRDSKSSDKSVCLFTDFDSQTNVSQSKDSDVYITDKCVLDMRSMDFKSNSAVAWSNKSDFACANAFNNSIIPEDTFFPSSDVPCDVKLVEKSFETDTNLNFQNLSVIGFRILLLKVAGFNLLMTLRLWSSRAKRSGSGVKQTLNFDLLKLAGDVESNPGPTSATMDWIWRILFLVGAATGAHSGPQVQLQESGGGLAQAGGSLRLSCAASGRTFSMGWFRQAPGKEREFVAAITYSGGSPYYASSVRGRFTISRDNAKNTVYLQMNSLKPEDTAVYYCAANPTYGSDWNAENWGQGTQVTVSSGSGGGGSGGGGSGGGGSFEQVQLQQPGAELVKPGASVKMSCKASGYAFSSYWINWMKQKPGQGLEWIGQIYPGDGDTNYNGKFKGRATLTADTSSSTAYMQLSSLTSEDSAVYFCARSITTVVGCAMDYWGQGTSVTVSSTREDLKNVFPPEVAVFEPSKAEIAHTQKATLVCLATGFYPDHVELSWWVNGKEVHSGVCTDPQPLKEQPALNDSRYCLSSRLRVSATFWQNPRNHFRCQVQFYGLSENDEWTQDRAKPVTQIVSAEAWGRADCGITSASYHQGVLSATILYEILLGKATLYAVLVSALVLMAMVKRKDSRGRAKRSGSGATNFSLLKQAGDVEENPGPSRGHMTEYKPTVRLATRDDVPRAVRTLAAAFADYPATRHTVDPDRHIERVTELQELFLTRVGLDIGKVWVADDGAAVAVWTTPESVEAGAVFAEIGPRMAELSGSRLAAQQQMEGLLAPHRPKEPAWFLATVGVSPDHQGKGLGSAVVLPGVEAAERAGVPAFLETSAPRNLPFYERLGFTVTADVEVPEGPRTWCMTRKPGA |  |  |  |  | 5+ (refer to approximately 5%, 10%, 20%, 30%, 40% and 50% GFP positive cells) | 5+ (refer to approximately 5%, 10%, 20%, 30%, 40% and 50% GFP positive cells) |  | 
22119 (protein) MALPVTALLLPLALLLHAARPDIQMTQSPSSLSASVGDRVTITCKASDHINNWLAWYQQKPGQAPKLLIYGATTLETGVPSRFSGSGSGTDYTLTISSLQPEDFATYYCQQSWNTPWTFGQGTKLEIKRLEADVSPKPTIFLPSIAETKLQKAGTYLCLLEKFFPDVIKIHWQEKKSNTILGSQEGNTMKTNDTYMKFSWLTVPEKSLDKEHRCIVRHENNKNGVDQEIIFPPIKTDVITMDPKDNCSKDANDTLLLQLTNTSAYYMYLLLLLKSVVYFAIITCCLLRRTAFCCNGEKSRAKRSGSGATNFSLLKQAGDVEENPGPTSATMDWIWRILFLVGAATGAHSGPQVQLQESGGGLAQAGGSLRLSCAASGRTFSMGWFRQAPGKEREFVAAITYSGGSPYYASSVRGRFTISRDNAKNTVYLQMNSLKPEDTAVYYCAANPTYGSDWNAENWGQGTQVTVSSGSGGGGSGGGGSGGGGSFEQVQLQQPGAELVKPGASVKMSCKASGYAFSSYWINWMKQKPGQGLEWIGQIYPGDGDTNYNGKFKGRATLTADTSSSTAYMQLSSLTSEDSAVYFCARSITTVVGCAMDYWGQGTSVTVSSTRPHTKPSVFVMKNGTNVACLVKEFYPKDIRINLVSSKKITEFDPAIVISPSGKYNAVKLGKYEDSNSVTCSVQHDNKTVHSTDFEVKTDSTDHVKPKETENTKQPSKSCHKPKAIVHTEKVNMMSLTVLGLRMLFAKTVAVNFLLTAKLFFLRAKRSGSGVKQTLNFDLLKLAGDVESNPGPSRGHMTEYKPTVRLATRDDVPRAVRTLAAAFADYPATRHTVDPDRHIERVTELQELFLTRVGLDIGKVWVADDGAAVAVWTTPESVEAGAVFAEIGPRMAELSGSRLAAQQQMEGLLAPHRPKEPAWFLATVGVSPDHQGKGLGSAVVLPGVEAAERAGVPAFLETSAPRNLPFYERLGFTVTADVEVPEGPRTWCMTRKPGA |  |  |  | 4+ (refer to approximately 5%, 10%, 20%, 30%, 40% and 50% GFP positive cells) | 3+ (refer to approximately 5%, 10%, 20%, 30%, 40% and 50% GFP positive cells) | 3+ (refer to approximately 5%, 10%, 20%, 30%, 40% and 50% GFP positive cells) |  | 
22226 (protein) MALPVTALLLPLALLLHAARPACEVQLLESGGGLIQPGGSLRLSCAASGFTFSSHAMTWVRQAPGKGLEWVSAISGSGDYTHYADSVKGRFTISRDNSKNTVYLQMNSLRAEDSAVYYCAKDEDGGSLLGHRGQGTLVTVSSGTGPQGIFGQPGYINEFDIQMTQSPSSLSASVGDRVTITCKASDHINNWLAWYQQKPGQAPKLLIYGATTLETGVPSRFSGSGSGTDYTLTISSLQPEDFATYYCQQSWNTPWTFGQGTKLEIKRLEDLKNVFPPEVAVFEPSKAEIAHTQKATLVCLATGFYPDHVELSWWVNGKEVHSGVCTDPQPLKEQPALNDSRYCLSSRLRVSATFWQNPRNHFRCQVQFYGLSENDEWTQDRAKPVTQIVSAEAWGRADCGITSASYHQGVLSATILYEILLGKATLYAVLVSALVLMAMVKRKDSRGRAKRSGSGATNFSLLKQAGDVEENPGPTSATMDWIWRILFLVGAATGAHSGPEVQLVESGGGLVQAGGSLRLSCAASGRTFSMGWFRQAPGKEREFVAAITYSGGSPYYADSVKGRFTISRDNAKNTVYLQMNSLKPEDTAVYYCAANPTYGSDWNAENWGQGTQVTVSSGSGGGGSGGGGSGGGGSFEQVQLQQPGAELVKPGASVKMSCKASGYAFSSYWINWMKQKPGQGLEWIGQIYPGDGDTNYNGKFKGRATLTADTSSSTAYMQLSSLTSEDSAVYFCARSITTVVGCAMDYWGQGTSVTVSSTRIQNPDPAVYQLRDSKSSDKSVCLFTDFDSQTNVSQSKDSDVYITDKCVLDMRSMDFKSNSAVAWSNKSDFACANAFNNSIIPEDTFFPSPESSCDVKLVEKSFETDTNLNFQNLSVIGFRILLLKVAGFNLLMTLRLWSSRAKRSGSGVKQTLNFDLLKLAGDVESNPGPSRGHMTEYKPTVRLATRDDVPRAVRTLAAAFADYPATRHTVDPDRHIERVTELQELFLTRVGLDIGKVWVADDGAAVAVWTTPESVEAGAVFAEIGPRMAELSGSRLAAQQQMEGLLAPHRPKEPAWFLATVGVSPDHQGKGLGSAVVLPGVEAAERAGVPAFLETSAPRNLPFYERLGFTVTADVEVPEGPRTWCMTRKPGA |  |  |  | +/- (refer to approximately 5%, 10%, 20%, 30%, 40% and 50% GFP positive cells) |  | +/- (refer to approximately 5%, 10%, 20%, 30%, 40% and 50% GFP positive cells) | + (refer to approximately 5%, 10%, 20%, 30%, 40% and 50% GFP positive cells) | + (refer to approximately 5%, 10%, 20%, 30%, 40% and 50% GFP positive cells)

From patent US20230212319A1, “NOVEL ANTIGEN BINDING DOMAINS AND SYNTHETIC ANTIGEN RECEPTORS INCORPORATING THE SAME” (University of Southern California, priority 2020, published 2023)
